Patent US6972319B1, “Pituitary adenylate cyclase activating peptide (PACAP)receptor 3 (R3) agonists and their pharmacological methods of use” (priority 1999, dated 2005)
No end group written: not given here.

T1: PACAP-R3 (human, UniProt P41587 24-438)
T1 sequence (looked up): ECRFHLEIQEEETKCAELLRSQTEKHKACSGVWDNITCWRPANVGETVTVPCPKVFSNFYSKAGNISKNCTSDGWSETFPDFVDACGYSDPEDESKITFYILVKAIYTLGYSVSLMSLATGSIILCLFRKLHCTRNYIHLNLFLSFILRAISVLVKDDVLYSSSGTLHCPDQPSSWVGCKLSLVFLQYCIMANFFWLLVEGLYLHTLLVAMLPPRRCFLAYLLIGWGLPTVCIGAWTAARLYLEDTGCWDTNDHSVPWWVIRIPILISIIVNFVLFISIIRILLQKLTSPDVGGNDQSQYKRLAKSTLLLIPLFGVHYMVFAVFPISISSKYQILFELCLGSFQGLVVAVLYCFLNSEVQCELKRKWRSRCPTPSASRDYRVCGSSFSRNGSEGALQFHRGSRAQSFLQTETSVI


Target: T1, PACAP-R3
Assay: cell-based or functional assay

| Binder | R3 EC50 [nM] | R3 Selectivity |
| --- | --- | --- |
| HSDAVFTDNYTRLRKQVAAKKYLQSIKK [R3P60] | 1 | 120 |
| HSDAVFTENYTKLRKQLAAKKYLNDLKKGGT [R3P3] | 0.75 | 130 |
| HSDAVFTDNYTRLRKQLAAKKYLNDILKGGT [R3P23] | 0.43 | 23 |
| HSDAVFTDNYTRLRKQLAVKKYLNDILKGGT [R3P28] | 7 | 1 |
| HSDAVFTDNYTRLRKQLAAKKYLNDILNGGT [R3P27] | 0.8 | 8 |
| HSDAVFTDNYTRLRKQMAVKKYLNSIKKK [R3P58] | 0.32 | 170 |
| HSDAVFTDNYTRLRKQMAAKKYLNSIKNKR [R3P65] | 0.6 | 130 |
| HSDAVFTENYTRLRKQMAVKKYLNSLKK-NH2 [R3P7] | 4 | 0.5 |
| Ac-HSDAVFTENYTKLRKQLAAKKYLNDLKKGGT (ends and bridges not checked) [R3P2] | 3 | > 300 |
| HSDGIFTDSYSRYRKQMAVKKYLAAVKKYLAAVRHG-NH2 [R3P17] | 4 | 2 |
| HSDGIFTDSYSRYRKQMAVKKYLAAVKK [R3P40] | 0.7 | 2 |
| HSDAVFTDNYTRLRKQMAVKKYLNSIKNKRY [R3P59] | 0.15 | 70 |
| HSDAVFTDNYTRLRKQLAAKKYLNTIKNKRY [R3P67] | 0.3 | 330 |
| HSDAVFTDNYTRLRKQVAAKKYLQSIKNKRY [R3P66] | 0.4 | 250 |
| HSDAVFTDNYTRLRKQIAAKKYLQTIKK [R3P61] | 0.8 | 140 |
| HSDGIFTESYSRYRKQMAVKKYLAALKKKRYKQRVKNK [R3P6] | 80 | 3 |
| HSDGIFTDSYSRYRKQMAVKKYLAAVKQGGT-NH2 [R3P16] | 10 | 1.4 |
| HSDGIFTDSYSRYRKQLAAKKYLADVKK [R3P38] | 2.3 | 7 |
| HSDAVFTDNYTRLRKQVAAKKYLNSIKK [R3P62] | 1.8 | 100 |
| HSDGIFTDSYSRYRKQLAVKKYLAAVKK [R3P39] | 0.5 | 2 |
| HSDGIFTDSYSRYRKQLAAKKYLADVKKGGT [R3P37] | 4 | 18 |
